“Also recorded” adds a separate entry of the source.
B1: p110α siRNA: mixture of 4 RNAi oligos, "smart pool" from Dharmacon, against PI3K p110α, SEQ ID NO: 5-8 (nucleic acid)
chain 1: GCGAAAUUCUCACACUAUU
chain 2: GUGGUAAAGUUCCCAGAUA
chain 3: GCUUAGAGUUGGAGUUUGA
chain 4: GACCCUAGCCUUAGAUAAA
modifications: pool of four siRNAs, further chemistry not given here
B2: PDGFRα siRNA: "smart Pool" siRNA to hPDGFRα (Dharmacon), SEQ ID NO: 1-4 (nucleic acid)
chain 1: CGAGACUCCUGUAACCUUAUU
chain 2: GAGCUUCACCUAUCAAGUUUU
chain 3: GACAGUGGCCAUUAUACUAUU
chain 4: GAAUAGGGAUAGCUUCCUGUU
modifications: pool of four siRNAs, further chemistry not given here

How the values were obtained:
Assay type in all cases: cell-based, Human cytomegalovirus
HCMV [1] = assay: HCMV IE1 / viral gene expression, western blot of infected cells
Protocol: (A) pp65 immunofluorescence after HCMV treatment (1 h, 4° C.) followed by shifting to 37° C. for indicated times. Rows represent (top to bottom): HEL, PDGFRα null fibroblasts, parental fibroblasts, null fibroblasts overexpressing hPDGFRα, HEL transfected with control, or PDGFRα siRNA. Nuclei were stained with DAPI. (B) Average±S.D. pp65 positive/100 cells counted in triplicate from (A). (C) Mock or HCMV infected cells were analyzed by western blotting with the indicated antibodies. Lanes 1-4 indicate HEL, 325S, PDGFRα null and PDGFRα null over-expressing hPDGFRα, respectively. (D) HEL transfected with control or PDGFRα siRNA were mock (lanes 1) or HCMV-treated (lanes 2) and subjected to western blots with indicated antibodies. (E) Western blot of HEL and U87 lysates after infection with mock (lanes 1), HCMV (lanes 2), or HCMV pretreated with IMC-3G3 (10 μg/ml, 12 h, lanes 3) or Gleevec (100 nM, 1 h, lanes 4). […] 6 dpi, supernatants were used to infect naïve HEL cells, followed by IE1 immunostaining and quantification (secondary infection). […]
HUVEC cells were pre-treated with IMC-3G3 (10 μg/ml, Imclone, 12 h), or Gleevec (100 nM, 1 h) prior to HCMV or mock infection. 12 hours post-infection, cell lysates were analyzed by western blot for the presence of IE1 gene product. […]
(§1) Western Blot, Immunoprecipitation, and Immunofluorescence analyses. […] Cell lysates were analyzed by SDS-PAGE. […]

HCMV [2] = assay: Viral attachment and internalization assay (pp65 immunofluorescence); details: HEL
Protocol: (A) HEL cells were pretreated with PBS (20 min 4° C.), IMC-3G3 (2 h, 37° C., 10 μg/ml), or PDGF-AA (20 min, 4° C., 10 ng/ml) prior to infection with HCMV (MOI of 1, 4° C., 1 h). Cells were returned to 37° C. for 30 minutes, and processed for pp65^HCMV and PDGFRα double immunofluorescence. […] All conditions were assayed in triplicate cultures. One hundred cells in 4 low magnification fields were counted. Bars represent SD.
Viral Attachment and Internalization Assays. Mouse fibroblasts and HEL cells (72 hours following siRNA transfections) were incubated with HCMV (MOI of 0.5) or mock treated for 1 hour at 4° C., after which cells were returned to 37° C. for 15, 30, or 60 min. Cells were fixed using methanol (20 min) and processed for pp65 immunofluorescence. Four low power fields were counted for each condition and pp65 positive were recorded for each 100 cells. Internalization assays were repeated twice.

HCMV [3] = assay: HCMV pp65 western blot in HEL cells; details: siRNA 48 h prior to HCMV MOI of 1, western blot 2 h post-infection, indicates viral entry not inhibited
Protocol: HEL cells were transfected with siRNA against the PI3K p110α catalytic subunit (a mixture of 4 RNAi oligos, “smart pool” from Dharmacon) or non-targeting, control siRNA (Dharmacon) for 48 h prior to infection with HCMV (MOI of 1) for 1 hour. Cells were washed and cultured for 2 h-6 days. a. […] The mean number of IE1 positive cells is reduced by ˜50% in the PI3 Kp110α knockdown cultures—panel c**, p<0.01. PI3K p110α knock down is also significant (b, left panels, red fluorescence). However, unlike cells that lack a functional PDGFRα, PI3K p110α knock down cells are capable of producing infectious virus as shown by IE1 staining of the secondary infected cultures (panel d). A 10% decrease in infectious virus production in the cells treated with p110α siRNA is insignificant*, bars represent SD, […], panel c. Experiments were repeated twice, all conditions were assayed in triplicate. Similar results were obtained with both Towne-infected cultures (illustrated in this figure) and CMV-GFP.
Upper panel: HEL cells pretreated with anti-human PDGFRα antibody (10 ng/ml, for 30 min, clone AF-307-NA from R&D; lanes 1 and 4) or with AG 1295 (lane 3, […], from Calbiochem) were stimulated with Towne HCMV (lanes 2-4) or Mock infected (lane 1) for 10 min at 37 C. […]
as §1

HCMV [4] = assay: IE1 immunofluorescence of HCMV infected HEL cells
Protocol: HEL cells were transfected with PDGFRα siRNA (smart pool, Dharmacon) or non-targeting control siRNA (Dharmacon) for 48-60 hours when maximum protein knockdown is achieved (panels a and b. Also see FIG. 3d). Cells were then infected with Towne, AD169, TR, or CMV-GFP strains of HCMV for 1 hour, washed and returned to 37° C. in complete growth media. Supernatants obtained from these cultures were used in subsequent assays measuring production of infectious virus as described below. […] Cultures infected with supernatants from GFP-CMV treated cells were monitored daily under the fluorescence microscope. Over 40% of the control siRNA treated cells expressed CMV-GFP 1 day post infection (c, 1 dpi) and this number increased to 100% by day 6 (c, 6 dpi). Note the appearance of “plaques”-like groups of cells in control siRNA transfected cells (c, 3 and 6 dpi). […]
Measurements of Infectious Virus Production. […] A duplicate set of cultures was analyzed by immunofluorescence at 12 hours post infection (hpi) to assess percent of IE1 positive cells, as a measure of “primary infection”. […] 12 hpi cells were stained for IE1 and IE1 positive cells were counted amongst a total of 100 cells/low magnification microscopic field, 4 fields/condition. […] Where indicated, CMV-GFP infected cells were monitored daily under fluorescence microscope. […]

HCMV [5] = assay: Measurements of infectious virus production; details: for infectious virus production (secondary infection): supernatants of siRNA treated HEL harvested 6 dpi used to infect naïve HEL, IE1 staining
Protocol: HEL cells were transfected with PDGFRα siRNA (smart pool, Dharmacon) or non-targeting control siRNA (Dharmacon) for 48-60 hours when maximum protein knockdown is achieved (panels a and b. Also see FIG. 3d). Cells were then infected with Towne, AD169, TR, or CMV-GFP strains of HCMV for 1 hour, washed and returned to 37° C. in complete growth media. Supernatants obtained from these cultures were used in subsequent assays measuring production of infectious virus as described below. One set of cultures (panels a and b) were used 12 hours post-infection (12 hpi) to measure the expression level of PDGFRα and IE1 by immunofluorescence. […] Cultures infected with supernatants from GFP-CMV treated cells were monitored daily under the fluorescence microscope. Over 40% of the control siRNA treated cells expressed CMV-GFP 1 day post infection (c, 1 dpi) and this number increased to 100% by day 6 (c, 6 dpi). Note the appearance of “plaques”-like groups of cells in control siRNA transfected cells (c, 3 and 6 dpi). […] To measure infectious virus production, supernatants from both control and PDGFRα siRNA treated cultures were harvested at 6 dpi and used to infect naïve HEL cells (secondary infection). […] These experiments were repeated twice.
Measurements of Infectious Virus Production. HEL cells (where indicated were treated with siRNA) were infected with HCMV Towne or CMV-GFP for 1 h, washed and grown for 6 days at 37° C. A duplicate set of cultures was analyzed by immunofluorescence at 12 hours post infection (hpi) to assess percent of IE1 positive cells, as a measure of “primary infection”. Six days post infection supernatant from these cells were centrifuged to exclude cell debris and used to infect naïve HEL cultures as described above. 12 hpi cells were stained for IE1 and IE1 positive cells were counted amongst a total of 100 cells/low magnification microscopic field, 4 fields/condition. These counts were used to determine the level of “secondary infection”—i.e., infectious virus production from the primary infected cells. Where indicated, CMV-GFP infected cells were monitored daily under fluorescence microscope. Each condition was assayed in triplicate.

HCMV [6] = assay: HCMV IE1 / viral gene expression, western blot of infected cells; details: HEL; p110α knockdown vs non-targeting siRNA
HCMV [7] = assay: Plaque formation assay; details: HEL; CMV-GFP MOI of 1; siRNA knockdown at time of infection; counted at 14 dpi
Protocol: HEL cells transfected with PDGFRα siRNA and control cultures were infected with CMV-GFP (MOI of 1), as described in FIG. 8. Unabsorbed viruses were washed and cells were returned to 37 C. 24 h later, supernatant was harvested and used to infect naïve HEL cultures (6 wells/condition) which were monitored daily for 14 days under the fluorescence microscope for plaque formation. Photomicrographs show representative examples of the CMV-GFP infected cells at 2 and 12 days post infection (2 dpi and 12 dpi, respectively). b. Average plaques counted in 4 separate low magnification fields for each well at 14 dpi. […] As receptor levels return to normal (12 dpi), few infected (green fluorescent) cells were detected in the PDGFRα siRNA treated cultures (a, lower right panel), without formation of plaques. Plaque formation assays were repeated twice. Average counts (n=12)±SD are shown.
Plaque Formation Assays. Plaque formation was assayed. Confluent HEL cells in 6 well cluster plates were incubated with Towne-GFP (MOI of 1, 1 hr) in 0.5 ml growth media. Cells were washed and returned to 37° C. (in complete growth media). 24 h later supernatant was harvested and used to infect naïve HEL cultures which were monitored for plaque formation for 6-14 days. […] At day 14, plaques in ten low magnification fields/condition were counted (each experimental condition was tested in 6 independent wells).

Molecule | IE1 expression (HCMV [1]; HEL, siRNA 48 h prior to HCMV MOI of 1, western blot 2 h post-infection) | viral entry (HCMV [2]; p110α knockdown) | pp65 HCMV expression (HCMV [3]) | reduction of mean number of IE1 positive cells (HCMV [4]; HEL, p110α knockdown cultures, p<0.01) | decrease in infectious virus production (HCMV [5]; HEL treated with p110α siRNA, secondary infection, insignificant) | infectious virus production (secondary infection) (HCMV [5]) | viral gene expression (HCMV [6]) | viral gene expression (IE1 and pp65) (HCMV [1]; HEL cells pre-treated with siRNA, western blot, compared to controls) | viral internalization (nuclear pp65) (HCMV [2]; siRNA knockdown, 60 min after shifting to 37° C., vs non-targeting control siRNA, p<0.001) | IE1 gene expression (primary infection) (HCMV [4]; HEL transfected with siRNA 48-60 h, 12 hpi, vs control siRNA) | CMV-GFP expression (HCMV [5]; siRNA treated HEL cells monitored daily under fluorescence microscope, 1-6 dpi) | plaque formation (HCMV [7])
B1 | inhibited | allowed | unchanged | ~50% | 10% | lower levels than controls | delay | – | – | – | – | –
B2 | – | – | – | – | – | Near complete inhibition; also recorded: did not produce any infectious virus | – | undetectable | near complete blockade | Near complete inhibition; also recorded: significantly inhibited | did not express CMV-GFP | completely blocked; also recorded: No plaques were formed

— US9340788B2 (priority 2007, dated 2016)
